Publication PMC9018508

Biological target: CD40L (UniProt P29965)
Assay: SPR

UniProt P29965, sequence (P29965 116-261): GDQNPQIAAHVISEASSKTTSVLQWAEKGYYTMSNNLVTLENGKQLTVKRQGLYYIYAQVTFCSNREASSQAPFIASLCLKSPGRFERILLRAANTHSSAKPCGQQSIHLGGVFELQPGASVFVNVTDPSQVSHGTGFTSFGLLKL

Kd: 0.0416 µM
Substance: 5c8Ile^L98 → 7-HCAA Fab
